In publication PMC2953525, “Subtle Alterations in PCNA-Partner Interactions Severely Impair DNA Replication and Repair” (PLoS Biology, 2010):
Where a chain is given by its changes, count along the chain named. Where no end group is shown, it is not given here.

T1: pol30-Msh6E6, 6×Histidine-tagged (yeast, UniProt P15873 1-258, IDCL DIDADFLKIEEL to DYDKDLLKIIEL)
T1 construct: PCNA (POL30), yeast, in pET28; source: E. coli BL21, in cleared crude lysate (ELISA); purified by Ni-NTA (SPR)
T1 sequence: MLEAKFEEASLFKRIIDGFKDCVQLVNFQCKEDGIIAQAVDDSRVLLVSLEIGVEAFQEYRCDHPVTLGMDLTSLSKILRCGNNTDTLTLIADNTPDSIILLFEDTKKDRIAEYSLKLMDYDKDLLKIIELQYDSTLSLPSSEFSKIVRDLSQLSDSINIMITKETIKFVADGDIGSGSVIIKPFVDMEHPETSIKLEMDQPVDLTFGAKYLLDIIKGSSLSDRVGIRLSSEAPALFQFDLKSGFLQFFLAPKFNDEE

T2: pol30-Ung1E3, 6×Histidine-tagged (yeast, UniProt P15873 1-258, IDCL DIDADFLKIEEL to DFDYDELKIEEL)
T2 construct: PCNA (POL30), yeast, in pET28; source: E. coli BL21, in cleared crude lysate (ELISA); purified by Ni-NTA (SPR)
T2 sequence: T1 sequence with Y121F, K123Y, L125E, I129E


Columns and labels:
[1] = biological target: T1, pol30-Msh6E6, 6×Histidine-tagged; experiment: SPR; ProteOn XPR36; WT or mutant PCNA (0.4 to 5.2 fmol) immobilised on a GLM chip by carbodiimide-activated succinimide coupling; PIP peptides 5–5,000 nM at 30 µl/min; peptide buffer 150 mM NaCl, 1 mM EDTA, 0.01% Tween-80, 30 mM Hepes, pH 7.5; conditions: both partners purified
[2] = biological target: T2, pol30-Ung1E3, 6×Histidine-tagged; experiment: as above; conditions: both partners purified

Binder	fold increase in binding affinity relative to WT PCNA (SPR) [1] [fold]	fold increase in binding affinity relative to WT PCNA (SPR) [2] [fold]
QSSLLSFF (also: biotinylated, site not given here) [PIP peptide derived from Msh6]	1.6	–
QTTIEDFF (also: biotinylated, site not given here) [PIP peptide derived from Ung1]	–	3.5
